{"source": "paper PMC6592955", "assay_in_all_cases": "FRET or BRET; 2pFLIM-FRET in single dendritic spines of CA1 pyramidal neurons, organotypic hippocampal slices; train of two-photon glutamate uncaging (0.49 Hz, 30 pulses, sLTP protocol) without extracellular Mg^2+; room temperature (25–27 °C); 128 ms/frame; decay after the train fitted with a double exponential; T286A in slices of Camk2a^T286A knock-in mice", "key": {"[1]": {"target": "mEGFP-CaMKIIα (wildtype) (Rattus norvegicus) (UniProt P11275)"}, "[2]": {"target": "mEGFP-CaMKIIα^T305A/T306A (Rattus norvegicus) (UniProt P11275)"}, "[3]": {"target": "mEGFP-CaMKIIα^T286A (Rattus norvegicus) (UniProt P11275)"}}}
{"substance": "mCherry-CaM (from UniProt P0DP26 1-149) (natural protein; other documents disagree on this pair)", "values": [{"measurement": "dissociation time constant (tau fast, decay after the train)", "setting": "[1]", "result": 3.2, "unit": "s"}]}
{"substance": "mCherry-CaM (from UniProt P0DP26 1-149) (natural protein)", "values": [{"measurement": "dissociation time constant (tau fast, decay after the train)", "setting": "[2]", "result": 9.3, "unit": "s"}, {"measurement": "dissociation time constant (tau fast, decay after the train)", "setting": "[3]", "result": 1, "unit": "s"}]}
